Substitutions are numbered along the chain they refer to.
B1: 1146/1147 (antibody, V domains shown)
VH: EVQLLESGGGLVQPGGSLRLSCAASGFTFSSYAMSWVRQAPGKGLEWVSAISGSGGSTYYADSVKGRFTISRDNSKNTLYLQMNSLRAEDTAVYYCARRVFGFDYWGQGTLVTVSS
VL: DIQMTQSPSSLSASVGDRVTITCRASQSISSYLNWYQQKPGKAPKLLIYAASSLQSGVPSRFSGSGSGTDFTLTISSLQPEDFATYYCQQYYYYPFTFGQGTKLEIK
notes: From library AL2
B2: LTBR-3 (antibody, V domains shown)
VH: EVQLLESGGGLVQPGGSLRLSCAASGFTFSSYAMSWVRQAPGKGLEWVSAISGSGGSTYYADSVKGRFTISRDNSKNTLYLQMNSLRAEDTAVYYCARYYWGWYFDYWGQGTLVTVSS
VL: B1 VL with Y91G, Y92W, Y93W, F96L
notes: From library AL1
B3: 1107/1108 (antibody, V domains shown)
VH: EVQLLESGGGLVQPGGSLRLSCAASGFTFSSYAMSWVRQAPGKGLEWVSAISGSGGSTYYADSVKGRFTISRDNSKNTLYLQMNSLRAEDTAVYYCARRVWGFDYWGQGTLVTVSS
VL: B1 VL with Y92G, Y93V
notes: From library AL1
B4: 1148/1149 (antibody, V domains shown)
VH: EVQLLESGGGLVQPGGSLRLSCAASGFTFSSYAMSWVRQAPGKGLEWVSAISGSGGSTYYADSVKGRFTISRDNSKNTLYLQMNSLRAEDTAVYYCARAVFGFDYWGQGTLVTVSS
VL: B1 VL with Y91A, Y94F, F96H
notes: From library AL2
B5: B03 (antibody, V domains shown)
VH: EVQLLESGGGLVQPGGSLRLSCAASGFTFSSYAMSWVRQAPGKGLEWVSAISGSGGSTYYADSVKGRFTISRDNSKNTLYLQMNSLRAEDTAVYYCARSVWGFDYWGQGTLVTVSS
VL: DIQMTQSPSSLSASVGDRVTITCRASQSISSYLNWYQQKPGKAPKLLIYAASSLQSGVPSRFSGSGSGTDFTLTISSLQPEDFATYYCQQGYHVWLYTFGQGTKLEIK
B6: 1136/1137 (antibody, V domains shown)
VH: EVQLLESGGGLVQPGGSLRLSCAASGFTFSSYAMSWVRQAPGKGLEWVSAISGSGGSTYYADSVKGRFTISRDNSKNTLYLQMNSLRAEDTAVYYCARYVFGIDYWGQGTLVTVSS
VL: B5 VL with G91A, H93Y, V94A, W95G, Y97F
notes: From library AL2

Legend:
CD40 on B cells = CD40 on B cells (UniProt P25942 21-277, limits assumed); assay: cell-based or functional assay
[1] = target: T1, Fc-fused CD40 (Ancell, #504-820) (human, UniProt P25942 21-193); assay: ELISA, Fc-fused CD40 coated at 0.05 ug/ml, IgG in serial dilution, anti human Ig-Fc-HRP
T1 construct: not shown: Fc part of a bought fusion protein
Description: For the CD40 binding ELISA, high binding flat bottom LIA plates (Greiner #655074) were coated with Fc-fused CD40 (Ancell, #504-820) at 0.05 μg/ml, and milk powder were used at 3% for blocking and at 1% for dilution. The antibodies to be tested were added in serial dilutions starting at 2000 ng/ml and detection was carried out using HRP conjugated goat anti human Ig-Fc (Jackson ImmunoResearch, #109-035-098) and Super Signal Pico Chemiluminescent (ThermoScientific, #37069) was used as substrate.

[2] = target: T2, LTBRhfc (R&Dsystems, USA) (human, UniProt P36941 28-227, limits assumed); assay: SPR (Biacore 3000), LTBRhfc amine-coupled to CM5, IgG as analyte, 37 C, pH 7.3
T2 construct: Bought protein; also called Fc-fused LTBR (R&D Systems, #629-LR); not shown: Fc part ('hfc') of a bought fusion protein
Description: The LTBR binding antibody clones were screened, selected and cloned into full IgG format as described above for CD40. Binding to LTBR for two selected anti-LTBR antibody clones was characterized by surface plasmon resonance (SPR). SPR analysis of LTBR antibodies was performed according to standard protocols. The LTBRhfc (R&Dsystems, USA) was immobilized to the BIAcore sensorchip, CM5, using conventional amine coupling. The anti-LTBR antibodies (serially diluted ⅓ from 1-0.012 nM) were analysed for binding in HBS-P (GE, BR-1003-68) at a flow rate of 30 μl/min at 37° C. and pH 7.3. The association was followed for 3 minutes and the dissociation for 10 minutes. Regeneration was performed twice using 50 mM NaOH for 30 seconds. The kinetic parameters and the affinity constants were calculated using BIAevaluation 4.1 software, and samples were run, using the Biacore 3000 instrument according to manufacturer's protocols.

T2 sequence (P36941 28-227 limits assumed): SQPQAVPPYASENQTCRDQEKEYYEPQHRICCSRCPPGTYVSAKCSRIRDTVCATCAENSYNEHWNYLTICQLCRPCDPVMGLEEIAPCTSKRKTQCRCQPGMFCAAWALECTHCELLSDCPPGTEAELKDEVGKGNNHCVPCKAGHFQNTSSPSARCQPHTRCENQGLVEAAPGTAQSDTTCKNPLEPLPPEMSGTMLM
CD40 on B cells, sequence (P25942 21-277 limits assumed): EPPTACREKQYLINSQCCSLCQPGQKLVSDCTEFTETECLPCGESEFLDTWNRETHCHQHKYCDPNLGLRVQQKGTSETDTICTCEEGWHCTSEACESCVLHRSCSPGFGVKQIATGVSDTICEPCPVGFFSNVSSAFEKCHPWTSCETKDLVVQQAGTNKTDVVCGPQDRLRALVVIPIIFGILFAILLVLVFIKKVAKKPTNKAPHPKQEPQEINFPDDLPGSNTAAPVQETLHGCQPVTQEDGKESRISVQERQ
T1 sequence (P25942 21-193 limits assumed): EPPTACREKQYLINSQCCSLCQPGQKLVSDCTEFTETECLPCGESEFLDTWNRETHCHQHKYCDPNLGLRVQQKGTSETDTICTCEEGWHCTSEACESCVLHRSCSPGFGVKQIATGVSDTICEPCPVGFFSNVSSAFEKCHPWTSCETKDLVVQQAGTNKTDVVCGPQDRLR

Row | Binder | EC50 B cell (ug/ml); B cell proliferation, ATP content by Cell-titer glow (CD40 on B cells) | EC50 [1] | Kd [2] | koff [2] | kon [2]
1 | B1 | 3.6 µg/mL | 0.58 µg/mL | – | – | –
2 | B2 | – | – | 734 pM | 0.00158 s⁻¹ | 2.23e+06 M⁻¹ s⁻¹
3 | B3 | 0.7 µg/mL | 0.034 µg/mL | – | – | –
4 | B4 | 2.3 µg/mL | 2.2 µg/mL | – | – | –
5 | B5 | 0.44 µg/mL | – | – | – | –
6 | B6 | 1 µg/mL | 1.4 µg/mL | – | – | –

Source: patent US20170002061A1 (ALLIGATOR BIOSCIENCE, published 2017)
